The results in this text go back to paper PMC9472616 (2022).

In this experiment the target is SARS-CoV-2 WT RBD (SARS-CoV-2, UniProt P0DTC2 319-541). The experiment is described as follows: SPR.

B1: REGN10987 (antibody, V domains shown)
VH: QVQLVESGGGVVQPGRSLRLSCAASGFTFSNYAMYWVRQAPGKGLEWVAVISYDGSNKYYADSVKGRFTISRDNSKNTLYLQMNSLRTEDTAVYYCASGSDYGDYLLVYWGQGTLVTVSS
VL: QSALTQPASVSGSPGQSITISCTGTSSDVGGYNYVSWYQQHPGKAPKLMIYDVSKRPSGVSNRFSGSKSGNTASLTISGLQSEDEADYYCNSLTSISTWVFGGGTKLTVL
On to B1, for which binding was put at a Kd of 2.22 nM. In other words, the single-digit nanomolar range.

B2: CB6 (antibody, V domains shown)
VH: EVQLVESGGGLVQPGGSLRLSCAASGFTVSSNYMSWVRQAPGKGLEWVSVIYSGGSTFYADSVKGRFTISRDNSMNTLFLQMNSLRAEDTAVYYCARVLPMYGDYLDYWGQGTLVTVSS
VL: not shown
On to B2, for which the dissociation constant Kd (usually the constant that tells how readily two partners part at equilibrium) was 30 nM.

B3: REGN10933 (antibody, V domains shown)
VH: QVQLVESGGGLVKPGGSLRLSCAASGFTFSDYYMSWIRQAPGKGLEWVSYITYSGSTIYYADSVKGRFTISRDNAKSSLYLQMNSLRAEDTAVYYCARDRGTTMVPFDYWGQGTLVTVSS
VL: DIQMTQSPSSLSASVGDRVTITCQASQDITNYLNWYQQKPGKAPKLLIYAASNLETGVPSRFSGSGSGTDFTFTISGLQPEDIATYYCQQYDNLPLTFGGGTKVEIK
In turn, B3 displayed a Kd of 1.6 nM.

B4: BD-368 (antibody, V domains shown)
VH: EVQLLESGGGVVQPGGSLRLSCAASGFAFTTYAMNWVRQAPGRGLEWVSAISDGGGSAYYADSVKGRFTISRDNSKNTLYLQMNSLRAEDTAVYYCAKTRGRGLYDYVWGSKDYWGQGTLVTVSS
VL: not shown
On to B4, for which the Kd turned out to be 3.47 nM.
